{
  "source": "paper PMC2794166",
  "molecular_target": "T1, mPOT1a_N (mouse, UniProt Q91WC1 1-300)",
  "T1 sequence": "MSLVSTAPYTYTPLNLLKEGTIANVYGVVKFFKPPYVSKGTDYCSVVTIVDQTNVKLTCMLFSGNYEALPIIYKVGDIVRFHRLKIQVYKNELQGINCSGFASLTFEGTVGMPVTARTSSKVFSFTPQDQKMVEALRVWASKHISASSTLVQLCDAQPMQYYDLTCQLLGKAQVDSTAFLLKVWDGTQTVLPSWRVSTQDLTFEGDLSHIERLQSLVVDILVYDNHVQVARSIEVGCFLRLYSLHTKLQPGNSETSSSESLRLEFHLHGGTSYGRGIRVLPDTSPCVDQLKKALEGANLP",
  "assay": "EMSA",
  "data": [
    {"binder": "TTAGGGTTAGGG (ssDNA)", "note": "[(TTAGGG)2]", "values": [
      {"measurement": "binding result", "result": "no binding"}
    ]}
  ]
}
